Assay results reported in patent US20240352105A1, “COMPOSITIONS AND METHODS FOR NEUTRALIZING ANTIGENS” (PACAGEN, INC, priority 2023, published 2024).

How the values were obtained:
[1] = target: T1, recombinant His-tagged Der p1 (dust mite, UniProt P08176 99-320, limits assumed); experiment: ELISA, Der p1-His 2 µg/mL, repeat 1
T1 sequence (looked up): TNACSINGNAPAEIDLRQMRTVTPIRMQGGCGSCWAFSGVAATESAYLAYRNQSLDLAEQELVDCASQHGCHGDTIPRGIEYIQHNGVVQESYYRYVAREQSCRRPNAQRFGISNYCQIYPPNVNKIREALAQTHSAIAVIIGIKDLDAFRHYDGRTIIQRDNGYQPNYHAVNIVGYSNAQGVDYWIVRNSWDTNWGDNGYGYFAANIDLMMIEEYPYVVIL

[2] = target: T1, recombinant His-tagged Der p1; experiment: ELISA, Der p1-His 10 µg/mL, repeat 1
[3] = target: T1, recombinant His-tagged Der p1; experiment: ELISA, Der p1-His 0.4 µg/mL, repeat 1
[4] = target: T1, recombinant His-tagged Der p1; experiment: ELISA, Der p1-His 0.0032 µg/mL, repeat 2
[5] = target: T1, recombinant His-tagged Der p1; experiment: ELISA, Der p1-His 0.016 µg/mL, repeat 1
[6] = target: T1, recombinant His-tagged Der p1; experiment: ELISA, Der p1-His 0.016 µg/mL, repeat 2
[7] = target: T1, recombinant His-tagged Der p1; experiment: ELISA, Der p1-His 0.4 µg/mL, repeat 2
[8] = target: T1, recombinant His-tagged Der p1; experiment: ELISA, Der p1-His 0.00064 µg/mL, repeat 1
[9] = target: T1, recombinant His-tagged Der p1; experiment: ELISA, Der p1-His 0.0032 µg/mL, repeat 1
[10] = target: T1, recombinant His-tagged Der p1; experiment: ELISA, Der p1-His 10 µg/mL, repeat 2
[11] = target: T1, recombinant His-tagged Der p1; experiment: ELISA, Der p1-His 0.00064 µg/mL, repeat 2
[12] = target: T1, recombinant His-tagged Der p1; experiment: ELISA, Der p1-His 0.08 µg/mL, repeat 1
[13] = target: T1, recombinant His-tagged Der p1; experiment: ELISA, Der p1-His 0.08 µg/mL, repeat 2
[14] = target: T1, recombinant His-tagged Der p1; experiment: ELISA, Der p1-His 2 µg/mL, repeat 2
[15] = target: T2, Fel D1 epitope peptide SDAB22110-115-28AA-2 (cat); experiment: ELISA on Fel D1 epitope peptide; the row names two epitopes (SEQ ID NO: 61 and 58) and one EC50
T2 peptide: ENARILKNCVDAKM
Experimental: 2 microgram per milliliter (μg/mL) target antigen is coated in a 96-well plate and ELISA assay is performed after incubation with candidate VHHs. The binding EC50 of each clone is calculated using Prism GraphPad. The positive control antibody is involved as an internal control.
Isolated VHH clones were further validated by performing an ELISA assay as described in Example 1. Binding results are shown in FIG. 15B-15D for the epitope of SEQ ID NO: 61. Binding results are shown in FIG. 16 for the epitope of SEQ ID NO: 59. Binding results are shown in FIG. 17A-17E for the epitope of SEQ ID NO: 60. Binding results are shown in FIG. 18 for the epitope of SEQ ID NO: 58.

[16] = target: T3, Fel D1 (Felis catus, UniProt P30438+P30440); experiment: Size Exclusion Chromatography test of Fel D1 neutralization (tetramer formation); set-up: species or system cat; settings: 30 ug Fel D1 and 30 ug 1-C3 pre-incubated at 37° C. for 4 hours
T3 sequence (P30438 23-92): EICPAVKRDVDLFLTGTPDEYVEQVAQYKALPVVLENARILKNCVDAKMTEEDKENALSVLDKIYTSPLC
T3 sequence (P30440 18-109): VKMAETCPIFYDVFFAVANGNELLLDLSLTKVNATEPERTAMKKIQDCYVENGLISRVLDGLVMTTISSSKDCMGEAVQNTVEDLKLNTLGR
Experimental: Functional validation was also performed testing the capability of an exemplary clone to neutralize Fel D1. Fel D1 is naturally a weaker tetramer that causes allergic reactions by causing cross-linking of neighboring IgEs on immune cells (mast cells, etc.). […] On the SEC, there are two distinct peaks for pure Fel D1, the earlier peak representing the tetramer and the laker peak representing the monomer (FIG. 20A). Conditions for this SEC graph are (Column: Zenix-C SEC-80, 7.8×300 mm, 3 um, 80 Å; Sample: Fel D1; Sample Volume: 30 μL (25 ug); Mobile phase: 150 mM phosphate buffer, pH 7.0; Flow rate: 0.7 mL/min; Detection: UV 280 nm; System: Thermo Vanquish Flex.
Conditions for this SEC graph are (Column: Zenix-C SEC-80, 7.8×300 mm, 3 um, 80 Å; Sample: 1-C3; Sample Volume: 30 μL; Mobile phase: 150 mM phosphate buffer, pH 7.0; Flow rate: 0.7 mL/min; Detection: UV 280 nm; System: Thermo Vanquish Flex.
When clone C3 and Fel D1 are incubated together for 4 hours at 37° C. and then assayed, the two Fel D1 peaks were no longer detected and only the C3-Fel D1 complex is detected. […]

[17] = Thermostability (Tm, Tonset, Tagg) by Nanotemper DSF; assay type: physicochemical; set-up: key to Tm2 / Tagg / Tm1 / Tm / Tm3 / Tonset / Tonset ø (mean) / Tagg ø (mean): temperatures in °C; settings: anti-Fel d1 VHH
Procedure, shortened: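 Isolated VHH clones were heated from 20 °C to 95 °C at 1 °C/min using DSF. Tm, Tonset and Tagg were derived from the thermal curves. Where several melting transitions occurred, each was reported in order (Tm1, Tm2, etc.).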

[18] = target: Fel D1; experiment: ELISA binding assay of anti-Fel d1 VHH clones on Fel D1 epitopes; set-up: species or system cat; settings: Epitope Recognized ENARILKNCVDAKM (SEQ ID NO: 61), VAQYKALPVVLENA (SEQ ID NO: 58)

**Q.** Which OD at 450 nm [1] does the source give for known Der p1 antibody (clone 10B9) here?
**A.** 4.03 OD

**Q.** And the OD at 450 nm [2]?
**A.** 4.37 OD

**Q.** What about the OD at 450 nm [3] of the same molecule?
**A.** 1.8 OD

**Q.** And the OD at 450 nm [4]?
**A.** 0.12 OD

**Q.** What about the OD at 450 nm [5] of the same molecule?
**A.** 0.2 OD

**Q.** What about the OD at 450 nm [6] of the same molecule?
**A.** 0.17 OD

**Q.** What about the OD at 450 nm [7] of the same molecule?
**A.** 1.87 OD

**Q.** And the OD at 450 nm [8]?
**A.** 0.13 OD

**Q.** And the OD at 450 nm [9]?
**A.** 0.25 OD

**Q.** What about the OD at 450 nm [10] of the same molecule?
**A.** 4.4 OD

**Q.** And the OD at 450 nm [11]?
**A.** 0.12 OD

**Q.** And the OD at 450 nm [12]?
**A.** 0.58 OD

**Q.** And the OD at 450 nm [13]?
**A.** 0.49 OD

**Q.** What about the OD at 450 nm [14] of the same molecule?
**A.** 4.31 OD

B1: SDAB22110-1-1-C3 (VHH)
VHH: QLQLVESGGGLVQPGGSLRLSCEASGFTFKYYTMSWYRQAPGKERELVATITNGDRTNYADSVKGRFTISRDNAKNTLYLQMNSLKPYDTAVYYCNRHLPLLQIWGQGTQVTVSS
notes: Expressed from a prokaryotic vector
**Q.** For B1, which EC50 [15] is on record?
**A.** 0.352 µg/mL

B2: SDAB22110-1-1-C3: anti-Fel d1 VHH clone, SEQ ID NO: 49 (protein)
VHH: AVQLVESGGGLVQPGGSLRLSCAASGFTFTNYAMRWYRQAPGKERELVAAIPTSGGYTYTADSVKGRFTISRDNAKNTVYLQMNSLKPEDTAVYYCYGLRTLSDYYWGQGTQVTVSS
**Q.** For B2, which “Fel D1 tetramer formation (SEC)” value [16] is on record?
**A.** preventing the Fel D1 tetramer from forming

**Q.** And the Tagg [17]?
**A.** 58.93

**Q.** What about the Tm ([17]; single melting point, in °C (unit assumed)) of the same molecule?
**A.** 66.50

**Q.** And the EC50 [18]?
**A.** 0.352 µg/mL
